For experiment [1], the target named is T1, human VEGF (human, UniProt P15692 207-395, biotinylated (site not stated)).
T1 construct: Biotinylated human VEGF generated internally; also called hVEGF; hVEGF-biotin
T1 sequence: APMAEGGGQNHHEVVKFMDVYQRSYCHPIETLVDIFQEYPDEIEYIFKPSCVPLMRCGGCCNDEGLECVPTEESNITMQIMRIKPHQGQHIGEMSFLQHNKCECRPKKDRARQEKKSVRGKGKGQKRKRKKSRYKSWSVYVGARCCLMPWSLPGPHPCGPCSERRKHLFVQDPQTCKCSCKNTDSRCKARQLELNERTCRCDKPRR
Nature of the experiment: Biacore SPR, hVEGF.

The target of experiment [2] is T1, human VEGF. In words: Biacore SPR, hVEGF. This is another data set of the same source.
Method: At first, individual CDR residues were substituted and the affinity for hVEGF was measured by Biacore as described below. […] HC8T, and HC9T and the affinity of the resulting peptide-tagged Fab for both HA and hVEGF was measured by Biacore as described below (Table 17).
Affinity of optimized HA-binding peptide tags for HA and human VEGF were measured by Biacore. […] In order to determine target kinetics, two different formats were utilized. […] The second format is an anti-fab capture method in which the fab protein samples are captured and the target proteins flowed over at various concentrations.
The sample compartment which includes the analytes, ligands, and regeneration buffer, is kept at 15° C. All other running conditions were carried out at either 25° C. or 37° C. in 1×HBSE+P buffer. […] Data was collected at 10 Hz and analyzed using the Biacore T200 Evaluation Software (GE Healthcare®). This program uses a global fitting analysis method for the determination of rate and affinity constants for each interaction.

Where two headings read alike, the source gives them in different places.

B1: NVS101 (Fab)
heavy: EVQLVESGGGLVQPGGSLRLSCTASGFSLTDYYYMTWVRQAPGKGLEWVGFIDPDDDPYYATWAKGRFTISRDNSKNTLYLQMNSLRAEDTAVYYCAGGDHNSGWGLDIWGQGTLVTVSSASTKGPSVFPLAPSSKSTSGGTAALGCLVKDYFPEPVTVSWNSGALTSGVHTFPAVLQSSGLYSLSSVVTVPSSSLGTQTYICNVNHKPSNTKVDKRVEPKSC
light: ACGVYHREAQSGKYYLTYAEAKAVCEFEGGHLATYKQLLCAQKIGFHVCAAGWMAKGRVGYPIVKPGPNCGFGKTGIIDYGIRLNRSERWDAYCYNPHAGGGSDIVMTQSPSTLSASVGDRVIITCQASEIIHSWLAWYQQKPGKAPKLLIYLASTLASGVPSRFSGSGSGAEFTLTISSLQPDDFATYYCQNVYLASTNGANFGQGTKLTVLKRTVAAPSVFIFPPSDEQLKSGTASVVCLLNNFYPREAKVQWKVDNALQSGNSQESVTEQDSKDSTYSLSSTLTLSKADYEKHKVYACEVTHQGLSSPVTKSFNRGEC
Take B1: in the experiment with human VEGF [1], the Kd was 7.1 pM, the koff came out at 0.000219 s⁻¹ and the kon is 3.09e+07 M⁻¹ s⁻¹.

B2: NVS4/NVSX (Fab)
heavy: EVQLVESGGGLVQPGGSLRLSCTASGFSLTDYYYMTWVRQAPGKGLEWVGFIDPDDDPYYATWAKGRFTISRDNSKNTLYLQMNSLRAEDTAVYYCAGGDHNSGWGLDIWGQGTLVTVSSASTKGPSVFPLAPSSKSTSGGTAALGCLVKDYFPEPVTVSWNSGALTSGVHTFPAVLQSSGLYSLSSVVTVPSSSLGTQTYICNVNHKPSNTKVDKRVEPKSCGSGGGGVYHREAISGKYYLTYAEAKAVCEFEGGHLATYKQLLAAQKIGFHVCAAGWMAKGRVGYPIVKPGPNCGFGKTGIIDYGIRLNRSERWDAYCYNPHA
light: EIVMTQSPSTLSASVGDRVIITCQASEIIHSWLAWYQQKPGKAPKLLIYLASTLASGVPSRFSGSGSGAEFTLTISSLQPDDFATYYCQNVYLASTNGANFGQGTKLTVLKRTVAAPSVFIFPPSDEQLKSGTASVVCLLNNFYPREAKVQWKVDNALQSGNSQESVTEQDSKDSTYSLSSTLTLSKADYEKHKVYACEVTHQGLSSPVTKSFNRGEC
notes: NVS4 Fab linked to peptide tag NVS-X
As for B2, in the experiment with human VEGF [1], the affinity, expressed as Kd, was 0.465 pM; the off-rate constant (koff) amounted to 2.11e-05 s⁻¹; the kon worked out at 4.53e+07 M⁻¹ s⁻¹.

B3: NVS100 (Fab)
heavy: GACGVYHREAQSGKYYLTYAEAKAVCEFEGGHLATYKQLLCAQKIGFHVCAAGWMAKGRVGYPIVKPGPNCGFGKTGIIDYGIRLNRSERWDAYCYNPHAGGGSQVQLVESGGGLVQPGGSLRLSCTASGFSLTDYYYMTWVRQAPGKGLEWVGFIDPDDDPYYATWAKGRFTISRDNSKNTLYLQMNSLRAEDTAVYYCAGGDHNSGWGLDIWGQGTLVTVSSASTKGPSVFPLAPSSKSTSGGTAALGCLVKDYFPEPVTVSWNSGALTSGVHTFPAVLQSSGLYSLSSVVTVPSSSLGTQTYICNVNHKPSNTKVDKRVEPKSC
light: EIVMTQSPSTLSASVGDRVIITCQASEIIHSWLAWYQQKPGKAPKLLIYLASTLASGVPSRFSGSGSGAEFTLTISSLQPDDFATYYCQNVYLASTNGANFGQGTKLTVLKRTVAAPSVFIFPPSDEQLKSGTASVVCLLNNFYPREAKVQWKVDNALQSGNSQESVTEQDSKDSTYSLSSTLTLSKADYEKHKVYACEVTHQGLSSPVTKSFNRGEC
notes: Tag NVS-AX at the N-terminus of the NVS4 heavy chain
In the experiment with human VEGF [1], B3 had a Kd of 1.34 pM, an off-rate (koff) of 4.97e-05 s⁻¹ and a kon of 3.71e+07 M⁻¹ s⁻¹.

B4: LC2T (Fab, V domains shown)
VH: EVQLVESGGGLVQPGGSLRLSCTASGFSLTDYYYMTWVRQAPGKGLEWVGFIDPDDDPYYATWAKGRFTISRDNSKNTLYLQMNSLRAEDTAVYYCAGGDHNSGWGLDIWGQGTLVTVSS
VL: EIVMTQSPSTLSASVGDRVIITCQASQKIHSWLAWYQQKPGKAPKLLIYQASKLAKGVPSRFSGSGSGAEFTLTISSLQPDDFATYYCQNVYLASTNGANFGQGTKLTVLK
notes: Light chain CDR variant LC2 with tagged NVS4 heavy chain
As for B4, in the experiment with human VEGF [2], the dissociation constant Kd was found to be 1.33 pM, the off-rate constant (koff) is 0.000109 s⁻¹ and the kon was determined as 8.18e+07 M⁻¹ s⁻¹.

B5: LC3T (Fab, V domains shown)
VH: EVQLVESGGGLVQPGGSLRLSCTASGFSLTDYYYMTWVRQAPGKGLEWVGFIDPDDDPYYATWAKGRFTISRDNSKNTLYLQMNSLRAEDTAVYYCAGGDHNSGWGLDIWGQGTLVTVSS
VL: EIVMTQSPSTLSASVGDRVIITCQASQKIHSWLAWYQQKPGKAPKLLIYQASKLAKGVPSRFSGSGSGAEFTLTISSLQPDDFATYYCQNVYLASRNGANFGQGTKLTVLK
notes: Light chain CDR variant LC3 with tagged NVS4 heavy chain
For the molecule B5, in the experiment with human VEGF [2], the dissociation constant (Kd) came out at 1.2 pM, the koff came out at 0.00016 s⁻¹ and the kon came out at 1.34e+08 M⁻¹ s⁻¹.

B6: NVS4/NVSY (Fab)
heavy: EVQLVESGGGLVQPGGSLRLSCTASGFSLTDYYYMTWVRQAPGKGLEWVGFIDPDDDPYYATWAKGRFTISRDNSKNTLYLQMNSLRAEDTAVYYCAGGDHNSGWGLDIWGQGTLVTVSSASTKGPSVFPLAPSSKSTSGGTAALGCLVKDYFPEPVTVSWNSGALTSGVHTFPAVLQSSGLYSLSSVVTVPSSSLGTQTYICNVNHKPSNTKVDKRVEPKSCGSGGGGVYHREAISGKYYLTYAEAKAVCEFEGGHLATYKQLQAAQKIGFHVCAAGWMAKGRVGYPIVKPGPNCGFGKTGIIDYGIRLNRSERWDAYCYNPHA
light: EIVMTQSPSTLSASVGDRVIITCQASEIIHSWLAWYQQKPGKAPKLLIYLASTLASGVPSRFSGSGSGAEFTLTISSLQPDDFATYYCQNVYLASTNGANFGQGTKLTVLKRTVAAPSVFIFPPSDEQLKSGTASVVCLLNNFYPREAKVQWKVDNALQSGNSQESVTEQDSKDSTYSLSSTLTLSKADYEKHKVYACEVTHQGLSSPVTKSFNRGEC
notes: NVS4 Fab linked to peptide tag NVS-Y
In the experiment with human VEGF [1], B6 yielded a dissociation constant Kd of 0.447 pM, a koff of 2.26e-05 s⁻¹ and an on-rate constant (kon) of 5.06e+07 M⁻¹ s⁻¹.

B7: LC5T (Fab, V domains shown)
VH: EVQLVESGGGLVQPGGSLRLSCTASGFSLTDYYYMTWVRQAPGKGLEWVGFIDPDDDPYYATWAKGRFTISRDNSKNTLYLQMNSLRAEDTAVYYCAGGDHNSGWGLDIWGQGTLVTVSS
VL: EIVMTQSPSTLSASVGDRVIITCQASQIIKSWLAWYQQKPGKAPKLLIYQASTLAKGVPSRFSGSGSGAEFTLTISSLQPDDFATYYCQNVYLASTNGANFGQGTKLTVLK
notes: Light chain CDR variant LC5 with tagged NVS4 heavy chain
In the experiment with human VEGF [2], B7 displayed a Kd of 4.35 pM, an off-rate (koff) of 0.000588 s⁻¹ and a kon of 1.35e+08 M⁻¹ s⁻¹.

B8: LC6T (Fab, V domains shown)
VH: EVQLVESGGGLVQPGGSLRLSCTASGFSLTDYYYMTWVRQAPGKGLEWVGFIDPDDDPYYATWAKGRFTISRDNSKNTLYLQMNSLRAEDTAVYYCAGGDHNSGWGLDIWGQGTLVTVSS
VL: EIVMTQSPSTLSASVGDRVIITCQASQIIHSWLAWYQQKPGKAPKLLIYQASTLAKGVPSRFSGSGSGAEFTLTISSLQPDDFATYYCQNVYLASRNGANFGQGTKLTVLK
notes: Light chain CDR variant LC6 with tagged NVS4 heavy chain
As for B8, in the experiment with human VEGF [2], the Kd amounted to 1.09 pM, the dissociation rate constant (koff) was 9.66e-05 s⁻¹ and the kon amounted to 8.88e+07 M⁻¹ s⁻¹.

B9: NVS102 (Fab)
heavy: QVQLVESGGGLVQPGGSLRLSCTASGFSLTDYYYMTWVRQAPGKGLEWVGFIDPDDDPYYATWAKGRFTISRDNSKNTLYLQMNSLRAEDTAVYYCAGGDHNSGWGLDIWGQGTLVTVSSASTKGPSVFPLAPSSKSTSGGTAALGCLVKDYFPEPVTVSWNSGALTSGVHTFPAVLQSSGLYSLSSVVTVPSSSLGTQTYICNVNHKPSNTKVDKRVEPKSCGSGGGACGVYHREAQSGKYYLTYAEAKAVCEFEGGHLATYKQLLCAQKIGFHVCAAGWMAKGRVGYPIVKPGPNCGFGKTGIIDYGIRLNRSERWDAYCYNPHA
light: EIVMTQSPSTLSASVGDRVIITCQASEIIHSWLAWYQQKPGKAPKLLIYLASTLASGVPSRFSGSGSGAEFTLTISSLQPDDFATYYCQNVYLASTNGANFGQGTKLTVLKRTVAAPSVFIFPPSDEQLKSGTASVVCLLNNFYPREAKVQWKVDNALQSGNSQESVTEQDSKDSTYSLSSTLTLSKADYEKHKVYACEVTHQGLSSPVTKSFNRGEC
notes: Tag NVS-AX at the C-terminus of the NVS4 heavy chain
As to B9, in the experiment with human VEGF [1], binding was characterised by a dissociation constant (Kd) of 1.43 pM, the dissociation rate constant (koff) is 0.000134 s⁻¹ and the association rate constant (kon) came out at 9.35e+07 M⁻¹ s⁻¹.

B10: LC1T (Fab, V domains shown)
VH: EVQLVESGGGLVQPGGSLRLSCTASGFSLTDYYYMTWVRQAPGKGLEWVGFIDPDDDPYYATWAKGRFTISRDNSKNTLYLQMNSLRAEDTAVYYCAGGDHNSGWGLDIWGQGTLVTVSS
VL: EIVMTQSPSTLSASVGDRVIITCQASQIIHSWLAWYQQKPGKAPKLLIYQASTLAKGVPSRFSGSGSGAEFTLTISSLQPDDFATYYCQNVYLASTNGANFGQGTKLTVLK
notes: Light chain CDR variant LC1 of NVS4 with tagged NVS4 heavy chain
As to B10, in the experiment with human VEGF [2], the dissociation constant Kd is 1.23 pM, the dissociation rate constant (koff) came out at 7.3e-05 s⁻¹ and the on-rate (kon) amounted to 5.95e+07 M⁻¹ s⁻¹.

B11: LC4T (Fab, V domains shown)
VH: EVQLVESGGGLVQPGGSLRLSCTASGFSLTDYYYMTWVRQAPGKGLEWVGFIDPDDDPYYATWAKGRFTISRDNSKNTLYLQMNSLRAEDTAVYYCAGGDHNSGWGLDIWGQGTLVTVSS
VL: EIVMTQSPSTLSASVGDRVIITCQASQKIHSWLAWYQQKPGKAPKLLIYQASTLAKGVPSRFSGSGSGAEFTLTISSLQPDDFATYYCQNVYLASTNGANFGQGTKLTVLK
notes: Light chain CDR variant LC4 with tagged NVS4 heavy chain
In the experiment with human VEGF [2], B11 yielded a dissociation constant Kd of 1.49 pM, an off-rate (koff) of 0.000135 s⁻¹ and a kon of 9.1e+07 M⁻¹ s⁻¹.

B12: LC7T (Fab, V domains shown)
VH: EVQLVESGGGLVQPGGSLRLSCTASGFSLTDYYYMTWVRQAPGKGLEWVGFIDPDDDPYYATWAKGRFTISRDNSKNTLYLQMNSLRAEDTAVYYCAGGDHNSGWGLDIWGQGTLVTVSS
VL: EIVMTQSPSTLSASVGDRVIITCQASQKIKSWLAWYQQKPGKAPKLLIYLASTLAKGVPSRFSGSGSGAEFTLTISSLQPDDFATYYCQNVYLASRNGANFGQGTKLTVLK
notes: Light chain CDR variant LC7 with tagged NVS4 heavy chain
For the molecule B12, in the experiment with human VEGF [2], binding was characterised by a dissociation constant (Kd) of 3.79 pM, the koff is 0.000229 s⁻¹ and the kon stood at 6.06e+07 M⁻¹ s⁻¹.
